Assay [1] has as its target hemagglutinin of the Asiatic toad influenza-like virus, ectodomain (Asiatic toad influenza-like virus). The assay is described as follows: cryo-EM structure.
In assay [2] the target is hemagglutinin of the spiny eel influenza-like virus, ectodomain (spiny eel influenza-like virus). Nature of the assay: cryo-EM structure.

In turn, “hemagglutinin of the Asiatic toad influenza-like virus, ectodomain (domain or fragment)” had a stoichiometry N in assay [1] of 3. For the substance “hemagglutinin of the spiny eel influenza-like virus, ectodomain (domain or fragment)”, the stoichiometry N in assay [2] was 3.

Usually stoichiometry N stands for a count of units in the complex or per binding partner.

Source of the values: PMC12654924.
